PMC10213502, “ICA69 regulates activity-dependent synaptic strengthening and learning and memory” (Frontiers in Molecular Neuroscience, 2023)

Molecular target: T1, GFP-tagged PICK1 (UniProt Q9EP80 1-416)
T1 construct: construct as previously described (Cao et al., 2007); also called GFP-PICK1; source: HEK293T, transfected, in lysate
Assay: co-IP; HEK cells co-transfected with the GFP-tagged bait and both myc-tagged proteins; IP with GFP antibody (normal rabbit serum as control), myc blot; IP signals normalised to input; lysis buffer 1% NP-40, 200 mM NaCl, 20 mM HEPES pH 7.4; 4°C
Conditions: partners not purified

T1 sequence (Q9EP80 whole entry): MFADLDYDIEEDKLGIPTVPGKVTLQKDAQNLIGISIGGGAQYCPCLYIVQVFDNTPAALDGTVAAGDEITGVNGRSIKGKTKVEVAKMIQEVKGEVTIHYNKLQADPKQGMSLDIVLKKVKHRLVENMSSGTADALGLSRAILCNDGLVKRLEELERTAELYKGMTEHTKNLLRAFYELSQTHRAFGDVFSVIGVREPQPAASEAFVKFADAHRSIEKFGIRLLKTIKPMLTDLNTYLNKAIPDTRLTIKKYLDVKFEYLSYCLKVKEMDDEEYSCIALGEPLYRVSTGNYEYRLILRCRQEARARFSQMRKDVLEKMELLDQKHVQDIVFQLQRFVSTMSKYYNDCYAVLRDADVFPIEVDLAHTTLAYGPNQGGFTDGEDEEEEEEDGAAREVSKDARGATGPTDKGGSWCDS

heteromer/homomer ratio (myc-ICA69 over myc-PICK1 in the IP of GFP-PICK1): 19 ratio
B1: myc-tagged ICA69 (full-length) (natural protein, UniProt Q63054 1-480, looked up)
chain: MSGHKCYSWELQDRFAQDKSVVNKMQQKYWETKQAFIKATGKKEDEHVVASDADLDAKLELFHSIQRTCLDLSKAIVLYQKRICFLSQEENELGKFLRSQGFQDKTRAGKMMQATGKALCFSSQQRLALRNPLCRFHQEVETFRHRAISDTWLTVNRMEQCRTEYRGALLWMKDVSQELDPDLYKQMEKFRKVQTQVRLAKKNFDKLKMDVCQKVDLLGASRCNLLSHMLATYQTTLLHFWEKTSHTMAAIHESFKGYQPYEFTTLKSLQDPMKKLVEKEKKKSSRRENREAVAQEPRQLISLEEENQHKESSTCQKEEGKSVPSSVDKSSADDACSGPIDELLDVKPEEACLGPMAGTPEPESGDKDDLLLLNEIFSTSSLDEGEFSREWAAVFGDDRLKEPAPMGAQGEPDPKPQIGSAFLPSQLLDQNMKDLQASLQEPAKAASDLTAWFSLFADLDPLSNPDAIGKTDKEHELLNA
notes: ICA69 (islet cell autoantigen of 69 kDa), myc-tagged full-length made by overlap extension PCR; The same protein as m1, with another tag; also called myc-ICA69; source: HEK293T, transfected, in lysate
